# Changes are numbered by the printed parent chain. Names and notes keep the numbering of the source. No end group written: not given here. TMR = tetramethyl rhodamine dye
# T1: Rb^P E675Q (human, UniProt P06400 380-788, E675Q)
# T1 construct: also called variant 56
# T1 sequence (looked up): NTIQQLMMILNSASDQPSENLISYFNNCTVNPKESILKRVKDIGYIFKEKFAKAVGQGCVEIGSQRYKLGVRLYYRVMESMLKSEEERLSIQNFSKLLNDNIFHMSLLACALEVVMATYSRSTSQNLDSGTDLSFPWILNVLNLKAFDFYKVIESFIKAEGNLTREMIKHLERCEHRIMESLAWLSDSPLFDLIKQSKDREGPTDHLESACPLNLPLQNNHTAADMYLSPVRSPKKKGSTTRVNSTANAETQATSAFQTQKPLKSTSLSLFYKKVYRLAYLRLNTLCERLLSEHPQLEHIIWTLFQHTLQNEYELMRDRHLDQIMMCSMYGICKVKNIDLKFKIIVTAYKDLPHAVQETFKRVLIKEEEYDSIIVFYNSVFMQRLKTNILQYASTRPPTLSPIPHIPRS
# T2: Rb^P S588F (human, UniProt P06400 380-788, S588F)
# T2 construct: also called variant 34
# T2 sequence (looked up): T1 sequence (looked up) with S209F, Q296E
# T3: Rb^P R741C (human, UniProt P06400 380-788, R741C)
# T3 construct: also called variant 68
# T3 sequence (looked up): T1 sequence (looked up) with Q296E, R362C
# T4: Rb^P L550I (human, UniProt P06400 380-788, L550I)
# T4 construct: also called variant 27
# T4 sequence (looked up): T1 sequence (looked up) with L171I, Q296E
# T5: Rb^P K462T (human, UniProt P06400 380-788, K462T)
# T5 construct: also called variant 9
# T5 sequence (looked up): T1 sequence (looked up) with K83T, Q296E
# B1: TMR-E2F1^TD, peptide of the E2F1 transactivation domain (peptide)
# peptide: {TMR}-GEGIRDLFDCDFGDLTPLD
# notes: also called E2F^TD; source: synthetic peptide, bought: GenScript
# B2: TMR-E7^LxCxE, LxCxE peptide of the E7 oncoprotein from HPV (peptide)
# peptide: DLYCYEQLN
# modifications: also: TMR label, position not given here
# notes: source: synthetic peptide, bought: GenScript
# Legend:
# Experiment in all cases: fluorescence polarisation; 37 °C, after the 25 °C reading ramped over 7 min to 37 °C and 2 min incubation; unlabeled Rb^P against 1.5 nM TMR-E2F1^TD or 7.5 nM TMR-E7^LxCxE; 25 mM Tris pH 8.0, 200 mM NaCl, 1 mM DTT, 0.1% Tween-20; apparent Kd
# Settings in all cases: both partners purified
# [1] = target: T1, Rb^P E675Q
# [2] = target: T2, Rb^P S588F
# [3] = target: T3, Rb^P R741C
# [4] = target: T4, Rb^P L550I
# [5] = target: T5, Rb^P K462T
Binder,Kd [1] [nM],Kd [2] [nM],Kd [3] [nM],Kd [4] [nM],Kd [5] [nM]
B1,71,51,64,80,51
B2,46,16,23,7,16

# — publication PMC11931385, “Structural and functional analysis of cancer-associated missense variants in the retinoblastoma protein pocket domain” (The Journal of Biological Chemistry, 2025)
